Experimental findings from paper PMC8673666 (PLoS Pathogens, 2021) are described below.

The target in data set [1] is biotinylated fiber knob of mouse adenovirus 3 (FKb-M3) (mouse adenovirus 3 (MAdV-3)). In words: SPR; […], single cycle; Biacore T200, 20°C; […] (CaCl2, MgCl2, […]; 1:1 kinetic model.
The target of data set [2] is human integrin αvβ8 on M000216 melanoma cells (human (endogenous in M000216)) (UniProt P06756). Kind of data set: flow cytometry on cells.
The target of data set [3] is mouse integrin αvβ8 on B16-mβ8 cells (mouse (endogenous in B16) | mouse) (UniProt P43406). In words: flow cytometry on cells.
Chain of mouse integrin αvβ8 on B16-mβ8 cells (mouse (endogenous in B16) | mouse) (P43406 31-1044, chain 1 of 2): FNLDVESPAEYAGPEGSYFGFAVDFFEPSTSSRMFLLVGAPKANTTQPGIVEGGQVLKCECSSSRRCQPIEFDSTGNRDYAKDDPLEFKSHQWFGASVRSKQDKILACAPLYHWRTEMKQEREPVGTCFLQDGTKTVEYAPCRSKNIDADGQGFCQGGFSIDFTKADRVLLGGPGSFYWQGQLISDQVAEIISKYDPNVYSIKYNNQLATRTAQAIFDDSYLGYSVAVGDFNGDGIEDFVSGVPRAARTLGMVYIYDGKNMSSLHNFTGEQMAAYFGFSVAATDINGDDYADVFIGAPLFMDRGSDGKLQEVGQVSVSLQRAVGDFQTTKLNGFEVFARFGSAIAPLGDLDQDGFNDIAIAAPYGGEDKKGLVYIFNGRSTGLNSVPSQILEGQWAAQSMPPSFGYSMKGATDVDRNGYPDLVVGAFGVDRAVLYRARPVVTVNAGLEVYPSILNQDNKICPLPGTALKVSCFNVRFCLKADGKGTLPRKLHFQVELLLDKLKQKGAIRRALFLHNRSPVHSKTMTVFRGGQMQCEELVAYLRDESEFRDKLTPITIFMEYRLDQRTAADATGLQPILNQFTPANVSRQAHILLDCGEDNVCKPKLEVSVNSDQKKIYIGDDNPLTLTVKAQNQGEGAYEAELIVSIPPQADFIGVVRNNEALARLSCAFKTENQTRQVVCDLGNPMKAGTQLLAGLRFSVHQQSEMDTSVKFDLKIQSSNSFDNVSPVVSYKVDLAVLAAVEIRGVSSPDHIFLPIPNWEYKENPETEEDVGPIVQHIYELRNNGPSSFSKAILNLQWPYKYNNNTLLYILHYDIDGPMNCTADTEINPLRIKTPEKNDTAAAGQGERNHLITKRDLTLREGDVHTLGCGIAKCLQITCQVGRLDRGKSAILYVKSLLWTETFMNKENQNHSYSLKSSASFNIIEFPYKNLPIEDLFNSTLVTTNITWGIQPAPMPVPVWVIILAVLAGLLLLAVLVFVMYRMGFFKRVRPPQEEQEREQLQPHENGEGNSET
Chain of mouse integrin αvβ8 on B16-mβ8 cells (mouse (endogenous in B16) | mouse) (Q0VBD0 22-767, chain 2 of 2, further chain): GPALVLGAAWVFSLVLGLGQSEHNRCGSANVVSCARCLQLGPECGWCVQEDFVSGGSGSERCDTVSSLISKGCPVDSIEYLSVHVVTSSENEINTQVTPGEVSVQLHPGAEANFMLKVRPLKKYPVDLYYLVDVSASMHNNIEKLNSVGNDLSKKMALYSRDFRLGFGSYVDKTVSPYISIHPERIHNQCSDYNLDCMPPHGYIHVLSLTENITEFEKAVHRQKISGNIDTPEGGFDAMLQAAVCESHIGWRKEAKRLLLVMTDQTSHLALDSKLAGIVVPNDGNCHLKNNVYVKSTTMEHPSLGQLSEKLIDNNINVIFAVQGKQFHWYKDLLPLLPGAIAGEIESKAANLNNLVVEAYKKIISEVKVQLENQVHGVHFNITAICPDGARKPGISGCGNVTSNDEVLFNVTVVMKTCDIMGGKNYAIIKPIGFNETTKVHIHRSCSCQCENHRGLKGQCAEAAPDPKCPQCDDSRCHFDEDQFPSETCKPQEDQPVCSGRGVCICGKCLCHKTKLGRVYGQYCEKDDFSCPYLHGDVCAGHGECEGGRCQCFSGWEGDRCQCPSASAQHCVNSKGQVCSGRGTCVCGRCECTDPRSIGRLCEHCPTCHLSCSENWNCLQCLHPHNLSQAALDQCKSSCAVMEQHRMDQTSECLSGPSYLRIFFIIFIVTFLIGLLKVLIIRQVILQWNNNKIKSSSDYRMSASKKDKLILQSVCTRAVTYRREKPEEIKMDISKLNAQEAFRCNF
The target in data set [4] is mouse integrin αvβ6 on B16-mβ6 cells (mouse (endogenous in B16) | mouse) (UniProt P43406). In words: flow cytometry on cells.
Data set [5] addresses mouse integrin αvβ6 on CMT-93 cells (mouse (endogenous in CMT-93)) (UniProt P43406). Kind of data set: flow cytometry on cells.
In data set [6] the target is recombinant soluble fiber knob of mouse adenovirus 3 (FK-M3) (mouse adenovirus 3 (MAdV-3)). In words: SEC-MALS.
The target in data set [7] is T1, soluble mouse integrin αvβ6 (sITG mαvβ6) (mouse, UniProt P43406;Q9Z0T9).
T1 construct: also called mouse sITG αvβ6; source: bought: R&D Systems, expressed in and secreted from CHO cells
T1 sequence (P43406 31-988, chain 1 of 2): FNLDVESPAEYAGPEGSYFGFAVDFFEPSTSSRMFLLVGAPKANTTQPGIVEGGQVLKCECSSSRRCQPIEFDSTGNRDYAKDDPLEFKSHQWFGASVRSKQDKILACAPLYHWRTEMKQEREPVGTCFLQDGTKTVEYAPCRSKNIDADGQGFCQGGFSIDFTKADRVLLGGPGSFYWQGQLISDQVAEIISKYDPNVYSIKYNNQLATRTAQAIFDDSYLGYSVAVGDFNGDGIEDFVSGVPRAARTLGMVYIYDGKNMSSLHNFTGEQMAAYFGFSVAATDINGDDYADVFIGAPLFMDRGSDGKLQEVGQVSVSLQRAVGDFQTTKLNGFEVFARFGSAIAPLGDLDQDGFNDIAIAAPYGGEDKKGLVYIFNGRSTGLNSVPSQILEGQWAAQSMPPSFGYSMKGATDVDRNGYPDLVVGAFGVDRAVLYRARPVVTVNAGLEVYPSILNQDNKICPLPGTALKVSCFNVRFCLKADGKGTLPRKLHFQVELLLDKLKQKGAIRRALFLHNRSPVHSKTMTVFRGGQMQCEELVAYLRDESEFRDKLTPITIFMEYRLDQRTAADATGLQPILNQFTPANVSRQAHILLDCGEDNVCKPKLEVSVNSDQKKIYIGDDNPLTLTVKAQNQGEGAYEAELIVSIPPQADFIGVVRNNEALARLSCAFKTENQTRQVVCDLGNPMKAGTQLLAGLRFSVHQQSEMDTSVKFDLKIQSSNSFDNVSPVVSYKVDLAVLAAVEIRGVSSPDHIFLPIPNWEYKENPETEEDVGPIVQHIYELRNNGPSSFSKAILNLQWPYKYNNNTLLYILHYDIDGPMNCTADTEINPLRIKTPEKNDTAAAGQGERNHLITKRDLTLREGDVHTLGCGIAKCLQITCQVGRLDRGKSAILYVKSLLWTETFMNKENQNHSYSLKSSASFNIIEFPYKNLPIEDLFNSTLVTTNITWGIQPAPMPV
T1 sequence (Q9Z0T9 22-708, chain 2 of 2): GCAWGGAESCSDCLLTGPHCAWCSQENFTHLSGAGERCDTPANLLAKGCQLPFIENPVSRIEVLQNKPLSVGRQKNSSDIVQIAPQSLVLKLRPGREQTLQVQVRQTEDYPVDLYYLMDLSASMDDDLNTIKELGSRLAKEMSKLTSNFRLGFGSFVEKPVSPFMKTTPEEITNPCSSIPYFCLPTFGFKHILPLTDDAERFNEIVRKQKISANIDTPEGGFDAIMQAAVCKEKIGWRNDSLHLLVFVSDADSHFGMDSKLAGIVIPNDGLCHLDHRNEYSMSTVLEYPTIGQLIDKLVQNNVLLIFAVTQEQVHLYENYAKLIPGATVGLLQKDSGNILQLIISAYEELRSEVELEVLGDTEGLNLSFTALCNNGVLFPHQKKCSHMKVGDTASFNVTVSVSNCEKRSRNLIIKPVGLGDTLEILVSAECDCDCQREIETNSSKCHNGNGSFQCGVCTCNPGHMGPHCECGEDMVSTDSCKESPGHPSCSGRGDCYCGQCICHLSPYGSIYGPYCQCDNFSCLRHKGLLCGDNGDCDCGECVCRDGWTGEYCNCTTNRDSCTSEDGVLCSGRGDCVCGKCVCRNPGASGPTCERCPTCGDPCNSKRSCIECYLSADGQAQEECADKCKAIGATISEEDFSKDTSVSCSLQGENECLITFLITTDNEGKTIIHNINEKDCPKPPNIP
Kind of data set: SPR; […], single cycle; Biacore T200, 20°C; […] (CaCl2, MgCl2, […]; 1:1 kinetic model. The settings on record: both partners purified.

Data set [8] addresses T2, soluble human integrin αvβ6 (sITG hαvβ6) (human, UniProt P06756;P18564).
T2 construct: also called human sITG αvβ6
The description is as above. The settings on record: both partners purified.

The target in data set [9] is T3, soluble human integrin αvβ8 (sITG hαvβ8) (human, UniProt P06756;P26012).
T3 construct: also called human sITG αvβ8
T3 sequence (P06756 31-992, chain 1 of 2): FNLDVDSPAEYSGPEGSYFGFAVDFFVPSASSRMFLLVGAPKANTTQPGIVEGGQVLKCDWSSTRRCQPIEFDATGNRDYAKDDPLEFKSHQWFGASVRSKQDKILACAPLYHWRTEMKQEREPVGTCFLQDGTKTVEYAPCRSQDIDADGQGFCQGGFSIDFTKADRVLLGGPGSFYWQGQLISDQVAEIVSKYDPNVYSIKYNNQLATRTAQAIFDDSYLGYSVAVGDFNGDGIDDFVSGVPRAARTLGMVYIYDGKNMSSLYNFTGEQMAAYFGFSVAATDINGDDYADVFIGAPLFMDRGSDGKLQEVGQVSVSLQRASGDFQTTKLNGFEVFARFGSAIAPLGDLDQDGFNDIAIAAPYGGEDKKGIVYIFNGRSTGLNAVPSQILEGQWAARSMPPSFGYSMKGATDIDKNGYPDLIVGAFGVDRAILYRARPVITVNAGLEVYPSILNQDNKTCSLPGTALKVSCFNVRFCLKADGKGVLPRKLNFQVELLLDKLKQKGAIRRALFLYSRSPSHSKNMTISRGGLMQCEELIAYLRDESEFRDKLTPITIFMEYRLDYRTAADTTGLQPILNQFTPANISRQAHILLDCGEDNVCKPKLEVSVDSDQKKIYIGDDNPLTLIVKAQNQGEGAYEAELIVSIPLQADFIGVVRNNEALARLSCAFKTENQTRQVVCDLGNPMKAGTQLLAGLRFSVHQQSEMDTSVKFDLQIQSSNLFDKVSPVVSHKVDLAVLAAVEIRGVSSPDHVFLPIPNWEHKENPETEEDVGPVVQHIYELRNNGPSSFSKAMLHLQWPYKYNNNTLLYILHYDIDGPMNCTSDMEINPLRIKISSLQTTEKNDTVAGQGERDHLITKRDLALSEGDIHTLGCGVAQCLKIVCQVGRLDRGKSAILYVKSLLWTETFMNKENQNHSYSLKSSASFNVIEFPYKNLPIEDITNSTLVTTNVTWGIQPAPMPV
T3 sequence (P26012 43-684, chain 2 of 2): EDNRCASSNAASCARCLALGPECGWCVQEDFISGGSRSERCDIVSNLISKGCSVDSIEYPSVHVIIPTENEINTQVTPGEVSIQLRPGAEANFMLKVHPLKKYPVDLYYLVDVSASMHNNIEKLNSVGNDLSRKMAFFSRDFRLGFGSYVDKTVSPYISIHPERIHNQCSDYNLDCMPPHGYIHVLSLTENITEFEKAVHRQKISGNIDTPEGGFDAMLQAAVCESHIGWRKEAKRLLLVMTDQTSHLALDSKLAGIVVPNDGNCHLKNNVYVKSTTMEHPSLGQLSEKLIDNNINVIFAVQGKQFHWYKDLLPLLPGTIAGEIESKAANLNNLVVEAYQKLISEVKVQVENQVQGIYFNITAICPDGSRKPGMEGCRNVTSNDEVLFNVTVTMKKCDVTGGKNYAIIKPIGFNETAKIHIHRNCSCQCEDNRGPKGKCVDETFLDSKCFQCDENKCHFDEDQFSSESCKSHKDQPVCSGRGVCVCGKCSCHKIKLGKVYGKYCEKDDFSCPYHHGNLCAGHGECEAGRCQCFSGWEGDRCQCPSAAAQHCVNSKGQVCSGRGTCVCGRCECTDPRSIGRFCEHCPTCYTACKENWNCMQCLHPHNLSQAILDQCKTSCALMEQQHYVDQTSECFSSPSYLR
Described as above. The settings on record: both partners purified.

Data set [10] deals with the molecule itself. Kind of data set: SEC-MALS.
Data set [11] concerns the target T4, mouse integrin αvβ6 on B16-mβ6 cells (mouse (endogenous in B16) | mouse, UniProt P43406;Q9Z0T9).
T4 construct: also called mαvβ6
Kind of data set: flow cytometry on cells. The settings on record: one partner purified.

Where only a bound is given, the exact number is not on record here.

Regarding “soluble mouse integrin αvβ6 (sITG mαvβ6) (from UniProt P43406;Q9Z0T9) (receptor)”, in data set [1], the Kd was < 0.01 nM, the koff was found to be 3.12e-08 s⁻¹ and the kon was found to be 51300 M⁻¹ s⁻¹.
In data set [1], “soluble human integrin αvβ6 (sITG hαvβ6) (from UniProt P06756;P18564) (receptor)” returned an equilibrium dissociation constant (Kd) of 0.059 nM, a koff of 5.01e-06 s⁻¹ and an on-rate constant (kon) of 85000 M⁻¹ s⁻¹.
On to “MAdV-1-IX-2A-GFP virus particles (M1-IX-G), bearing the M1 fiber (from UniProt P19721 1-613) (complex)”, for which, in data set [2], the fold increase of the binding enhancement in the presence of Mn2+ turned out to be 1.5 fold. Also, the fold increase of virus binding, Mg2+/Ca2+ buffer in [3] is 1.3 fold.
For “recombinant soluble fiber knob of mouse adenovirus 3 (FK-M3) (domain or fragment)”, the equilibrium dissociation constant (Kd) in data set [2] is 1.21 nM; in [3], 1.31 nM; in data set [4], 0.068 nM; in data set [5], 0.069 nM. The stoichiometry N in data set [6] came out at 3.
As for “MAdV-3-IX-2A-GFP virus particles (M3-IX-G), bearing the M3 fiber (complex)”, the fold increase of the binding enhancement in the presence of Mn2+ in data set [2] turned out to be 3.4 fold. For the same molecule, in data set [3], the fold increase of virus binding, Mg2+/Ca2+ buffer was 1.3 fold and the fold increase of virus binding, Mn2+ buffer is 2.7 fold.
“soluble human integrin αvβ8 (sITG hαvβ8) (from UniProt P06756;P26012) (receptor)”: in [1], the Kd is 1.32 nM, the dissociation rate constant (koff) came to 0.000965 s⁻¹ and the on-rate (kon) amounted to 729000 M⁻¹ s⁻¹.

B1: biotinylated fiber knob of mouse adenovirus 1 (FKb-M1) (domain or fragment)
chain: GLPIGNNGTFHTKQDCKIFLSLTRLGPMVHGTFMLQAPQYELTTNGMREITFSFNSTGGLEQPAPVTYWGALDPPPTAKAAEIENQKRVKKRAAPDPPVEPPPKRRGDLAVLFAKVAEQAMELAKEQAVQAQPPEHVNTDWADHMNLLRFMPNTLVYPTAATIAANLQFHDTRLSLRRATLKIRLNGSPDSAYQLGFMLELVGTQSASIVTDTISFWYYAEDY
modifications: biotin (biotinylated by co-expressed protein biotin ligase BirA)
In data set [7], B1 displayed a dissociation constant (Kd) of 0.25 nM, a koff of 1.66e-05 s⁻¹ and a kon of 66400 M⁻¹ s⁻¹. In data set [8], this molecule had a dissociation constant Kd of 1.58 nM, a koff of 0.000127 s⁻¹ and a kon of 80200 M⁻¹ s⁻¹. Further, in data set [9], the affinity, expressed as Kd, was 14.5 nM; the koff stood at 0.00673 s⁻¹; the kon was 465000 M⁻¹ s⁻¹. The “stoichiometry N” value in data set [10] was 3.

B2: recombinant soluble fiber knob of mouse adenovirus 1 (FK-M1) (domain or fragment)
chain: GLPIGNNGTFHTKQDCKIFLSLTRLGPMVHGTFMLQAPQYELTTNGMREITFSFNSTGGLEQPAPVTYWGALDPPPTAKAAEIENQKRVKKRAAPDPPVEPPPKRRGDLAVLFAKVAEQAMELAKEQAVQAQPPEHVNTDWADHMNLLRFMPNTLVYPTAATIAANLQFHDTRLSLRRATLKIRLNGSPDSAYQLGFMLELVGTQSASIVTDTISFWYYAEDY
notes: source: pET28a expression, purified (Ni-NTA); not shown: His6, N-terminal, kept
Molecule B2 had an equilibrium dissociation constant (Kd) in data set [11] of 1.27 ± 0.66 nM.

B3: biotinylated fiber knob of human adenovirus C5 (FKb-H5) (domain or fragment)
chain: TPAPSPNCRLNAEKDAKLTLVLTKCGSQILATVSVLAVKGSLAPISGTVQSAHLIIRFDENGVLLNNSFLDPEYWNFRNGDLTEGTAYTNAVGFMPNLSAYPKSHGKTAKSNIVSQVYLNGDKTKPVTLTITLNGTQETGDTTPSAYSMSFSWDWSGHNYINEIFATSSYTFSYIAQE
modifications: biotin (biotinylated by co-expressed protein biotin ligase BirA)
Consider B3, for which the “stoichiometry N” value in data set [10] came out at 3.
